According to patent US20260008872A1 (NANO TAG BIOTECHNOLOGIES, published 2026):
Residue numbers refer to the chain shown, from its start. Ends that are not written are not given here.

T1: epitope tag peptide SRLEEELRRRLTE (SEQ ID NO: 2), biotinylated (also: biotinylated (site and linker not given here))
T1 construct: Rationally designed peptide; also called ALFA-tag
T1 peptide: SRLEEELRRRLTE

B1: Variant 11 of humanized NbALFA (VHH)
VHH: EVQLVESGGGLVQPGGSLRLSCAASGVTISALNAMAMGWYRQAPGKRREMVAAVSERGNAMYRESVKGRFTISRDNAKRMVYLQMNSLRAEDTAVYYCHVLEDRVDSFHDYWGQGTQVTVSS
B2: Variant 12 of humanized NbALFA (VHH)
VHH: B1 VHH with A60T
B3: Variant 10 of humanized NbALFA (VHH)
VHH: B1 VHH with A60T, K67Q
B4: Variant 8 of humanized NbALFA (VHH)
VHH: B1 VHH with Y40F, K67Q
notes: Further engineered humanized variant; Any tag on the tested construct is not described
B5: Variant 13 of humanized NbALFA (VHH)
VHH: B1 VHH with A60T, M61Y, E64D
B6: Variant 9 of humanized NbALFA (VHH)
VHH: B1 VHH with K67Q
notes: as for B4
B7: Variant 15 of humanized NbALFA (VHH)
VHH: B1 VHH with A60T, M61Y, E64D, A77S, R79N, M80T, V81L
B8: Variant 14 of humanized NbALFA (VHH)
VHH: B1 VHH with A77S, R79N, M80T, V81L
B9: wtNbALFA (original alpaca-derived NbALFA single-domain antibody) (VHH)
VHH: EVQLQESGGGLVQPGGSLRLSCTASGVTISALNAMAMGWYRQAPGERRVMVAAVSERGNAMYRESVQGRFTVTRDFTNKMVSLQMDNLKPEDTAVYYCHVLEDRVDSFHDYWGQGTQVTVSS
notes: VHH; Any purification tag on the construct used in the BLI and SpA assays is not described; also called wild type NbALFA
B10: Variant 7 of humanized NbALFA (VHH)
VHH: B1 VHH with Y40F, R47G, M50L, K67Q
notes: CDR-grafted variant, produced in E. coli and purified by IMAC; The tag is not described
B11: Variant 5 of humanized NbALFA (VHH)
VHH: EVQLQASGGGFVQPGGSLRLSCAASGVTISALNAMAMGWFRQAPGKEREFVSAISERGNAYYRDSVKGRFTISRDNSKNTVYLQMNSLRAEDTATYYCAALEDRVDSFHDYWGQGTQVTVSS
notes: as for B10
B12: Variant 3 of humanized NbALFA (VHH)
VHH: EVQLLESGGGLVQPGGSLRLSCAASGVTISALNAMAMGWFRQAPGKGLEFVAAVSERGNAMYRESVQGRFTISRDNSKNTLYLQMNSLRAEDTAVYYCAALEDRVDSFHDYWGQGTLVTVSS
notes: as for B10
B13: Variant 4 of humanized NbALFA (VHH)
VHH: B12 VHH with M61Y, E64D, Q67K
notes: as for B10
B14: Variant 6 of humanized NbALFA (VHH)
VHH: B11 VHH with I54V, Y61M, D64E, K67Q
notes: as for B10

Target: T1, epitope tag peptide SRLEEELRRRLTE (SEQ …)
Assay: BLI (Octet), biotinylated peptide on SAX2.0 biosensors, 1:1 global fit
Description: (§1) To determine the affinity of humanized NbALFA variants to the epitope tag of SEQ ID NO: 2, an Octet RED96 or an Octet HTX from ForteBio was utilized. The measurement principle is based on biolayer interferometry (BLI). SAX2.0 biosensors were soaked for 10 min in kinetic buffer (KB), supplied by the manufacturer of the instrument. At first, a 60 or 120 sec baseline in KB was measured, followed by a loading step of 240 sec with 83 ng/ml of biotinylated peptide of SEQ ID NO: 2. After loading, free streptavidin entities on the biosensor were quenched during a 120 sec incubation step in a 100 μg/ml biocytin solution. Subsequently, a 60 to 600 sec baseline in KB was measured followed by association of the VHH. The VHH was applied with a maximal concentration of 10 nM and was 1:1 serial diluted in KB. As a reference, only KB was measured. Association was performed for 900 sec, followed by a dissociation time of 1500 sec in KB. The signal of the reference well was subtracted from the signal of all other biosensors and the signals of these processed data were aligned to the average of the second baseline. For inter-step correction, the data were aligned to the dissociation step and Savitzky-Golay filtering was applied to all curves. Association and dissociations were globally fitted using a 1:1 Langmuir binding model.

Binder	Kd [pM]	koff [s⁻¹]	kon [M⁻¹ s⁻¹]
B1	59.5	3.7e-05	622000
B2	248	0.000151	609000
B3	306	0.000147	480000
B4	263	0.000263	1e+06
B5	217	0.000167	767000
B6	182	3.69e-05	203000
B7	–	0.000302	1.59e+06
B8	218	0.00013	596000
B9	160	6.37e-05	399000

Target: T1, epitope tag peptide SRLEEELRRRLTE (SEQ …)
Assay: as above
Remark: another data set of the same source
Description: as §1

Binder	Kd [pM]	koff [s⁻¹]	kon [M⁻¹ s⁻¹]
B10	1860	0.000276	149000
B9	160	6.37e-05	399000

Target: T1, epitope tag peptide SRLEEELRRRLTE (SEQ …)
Assay: biolayer interferometry (Octet); biotinylated peptide of SEQ ID NO: 2 loaded on SAX2.0 biosensors; VHH in solution, 1:1 serial dilution (Method 1)
Source text: FIG. 1: Affinity of humanized NbALFA variants generated by CDR grafting. A, affinity measurements of the original alpaca-derived NbALFA (wtNbALFA) for the peptide of SEQ ID NO: 2. B, affinity measurements of variant 3 for the peptide of SEQ ID NO: 2. C, affinity measurements of variant 4 for the peptide of SEQ ID NO: 2. D, affinity measurements of variant 5 for the peptide of SEQ ID NO: 2. E, affinity measurements of variant 6 for the peptide of SEQ ID NO: 2. F, affinity measurements of variant 7 for the peptide of SEQ ID NO: 2. Affinity was determined using biolayer interferometry as described in Method 1 of the Examples.
as §1

Binder	binding result
B11	no binding
B12	no binding
B13	no binding
B14	no binding
